Experimental findings from patent publication US5463022A, “N-acetylcarboxymethylchitosan derivatives and process for preparation thereof” (priority 1990, dated 1995) are described below.

The subject of one series is Walker 256. Briefly: Concentration of 3H-labeled complexes in tumor (Walker 256) of rats. Type of series: in vivo, female Wistar rats. Conditions: 10 mg/Kg, carotids, 1440 min.
Series [1] can be described thus: Plasma concentration of 3H-labeled complexes in tumor-bearing rats (AUC). Type of series: in vivo, female Wistar rats. Conditions: 10 mg/Kg; for AUCo-oo in Plasma: carotids; for increase of retention in blood compared with the referential complexes (AUC): ratio to referential complexes. On the procedure: Thus, the complexes which were obtained as the final products of Examples 17, 18 and 19 above and had the polyethylene glycol (PEG) contents of 6%, 21% and 43%, respectively, and of which the MTX portions were labelled with ^3 H, were prepared and employed as the ^3 H-labeled test compounds for use as Test Samples 1, 2 and 3. Further, the complexes same as those above-mentioned complexes except that the PEG portion was eliminated therefrom and the MTX portion was ^3 H-labeled, were also prepared and used as referential ^3 H-labeled compounds. In each of the complexes used as Test Samples 1, 2 and 3 and the complexes used as the referential complexes, the peptide chain which was bonded to the 2-amino group of the carboxymethylglucosamine unit of these tested complexes was Gly-Phe-Phe. The PEG portion present in the complexes as Test Samples 1, 2 and 3 was the PEG1 (molecular weight: 5,000) as described in Example 17.
In the following experiment, there were employed such tumor-bearing female Wistar rats which had received the subcutaneous transplantation of cancer cells, Walker 256, to an inguinal part and subsequently had been raised for 6 days. Each solution of the test sample was prepared for administration, by suitably diluting the ^3 H-labeled test sample complex with a solution of a corresponding non-radioactively labeled complex in physiological saline. Using three rats per group, the solution of the test sample was administered into the carotids of rats at a dose of 10 mg/Kg of the complex.
Under ether anesthesia, blood was sampled from the carotid of rats periodically at the ends of 30 minutes, 1 hour, 2 hours, 4 hours and 6 hours after the administration, and the blood was centrifuged to separate the plasma. Upon elapsed time of 24 hours after the administration, blood was collected from rats under ether enesthesia until the rats were sacrificed under exsanguination. Several tissues and organs were separated from the sacrificed rats. After weighing the whole or some parts of the tissues and organs, their radioactivities were measured.
The radioactivity of the tissues separated was measured in the following manner. After each sample of tissue was collected in a combustion cone and was dried, the sample was combusted in an automatic sample-combusting apparatus ("ASC-113", ALOKA). The resulting ^3 H2 O was added to a scintillator ("AQUASOL-2", NEN) and then measured by liquid scintillation counter ("LSC-3600", ALOKA). The value of radioactivity so measured was calibrated by the external standard radiation source method.
The test results are presented in FIG. 29 and FIG. 30 of the accompanying drawings as well as in Table 1 given hereinafter. FIG. 29 is a graph showing time-dependent variations in the concentration of each sample complex present in the plasma as measured up to the end of 24 hours after the administration of the complex. FIG. 30 is a graph showing the distributions of each sample complex present in tissues of the rat body which are expressed as the concentration of the complex in term of the percentages on the basis of the dose of the complex.

Series [2] in a line: Serum concentration of 3H-labeled compound after i.v. administration in tumor-bearing mice. The following applies: 20 mg/Kg, caudal vein, 15 minutes to 24 hours, FIG. 18. Type of series: in vivo, male ICR mice. An excerpt:
(§1) The N-acetylcarboxymethylchitosan--Gly-Gly-Gly--MTX complex of Example 2, in which the MTX portion had been ^3 H-labeled, was used as a test sample compound. In addition, an ^3 H-labeled product of the partially N-acetylated carboxymethylchitosan as obtained in the course of the process of Example 1 was employed as a referential sample.
(§2) In the following experiment, there were employed tumor-bearing male ICR mice which had received subcutaneous implantation of Sarcoma 180 and subsequently had been raised for 10 days. The test sample compound was dissolved in physiological saline. Using three mice per group, the solution of the test sample compound was administered at a dose of 20 mg/Kg through the caudal vein. At the ends of 15 minutes, 30 minutes, 1 hour, 2 hours, 6 hours and 24 hours after the administration, the femoral artery and femoral vein of the mice of the respective groups were cut to collect blood samples. The radioactivity of a serum sample, which had been obtained by centrifuging each of the blood samples, and the radioactivity of a cancer tissue taken from the corresponding mouse were measured by the combustion method. In this way, the concentrations of the test sample compound present in the serum and the cancer tissue were evaluated.
(§3) The test results are plotted in FIGS. 18 and 19 of the accompanying drawings. […]

The subject of another series is Sarcoma 180. Briefly: Concentration of 3H-labeled compound in cancer tissue (Sarcoma 180) of mice. Type of series: in vivo, male ICR mice. Conditions: 20 mg/Kg, caudal vein, up to 24 hours, FIG. 19.
Source text: as §1, §2, §3

Method for Walker 256: The radioactivity of the tissues separated was measured in the following manner. […] The resulting ^3 H2 O was added to a scintillator ("AQUASOL-2", NEN) and then measured by liquid scintillation counter ("LSC-3600", ALOKA). The value of radioactivity so measured was calibrated by the external standard radiation source method.

For “N-acetylcarboxymethylchitosan-(PEG1)--Gly-Phe-Phe--MTX [Test Sample 1]”, the “Concentration of Sample in Tumor at end of 24 hrs” value (“Concentration of Sample in Tumor” below) with Walker 256 is listed as 0.22 % of dose/g. In series [1], the “AUCo-oo in Plasma” value is given as 20.85 % of dose · hr/ml and the “increase of retention in blood compared with the referential complexes (AUC)” value (from here on “increase of retention in blood”) was “about 1.3 times”.

For the substance “N-acetylcarboxymethylchitosan--Gly-Gly-Gly--MTX [Example 2]”, in series [2], the “retention in blood versus simple polysaccharide referential sample” value is given as “comparable to or longer than the retention of the simple polysaccharide”. Besides, in the series on Sarcoma 180, the “concentration in cancer tissue versus simple polysaccharide” value is “can concentrate in a cancer tissue”.

As to “N-acetylcarboxymethylchitosan-(PEG1)--Gly-Phe-Phe--MTX [Test Sample 3]”, the “Concentration of Sample in Tumor” value in the series with Walker 256 was 0.44 % of dose/g. Also, in series [1], the “AUCo-oo in Plasma” value is on record as 45.52 % of dose · hr/ml and the “increase of retention in blood” value was “about 3 times”.

For the substance “N-acetylcarboxymethylchitosan-(PEG1)--Gly-Phe-Phe--MTX [Test Sample 2]”, the “Concentration of Sample in Tumor” value in the series with Walker 256 is on record as 0.35 % of dose/g. For the same substance, in series [1], the “AUCo-oo in Plasma” value is 46.20 % of dose · hr/ml and the “increase of retention in blood” value is reported as “about 3 times”.
